Values of other authors as cited in PMC9794804.

Key:
TLR4 = TLR4 (UniProt O00206)
TREM-1 = TREM-1 (UniProt Q9NP99)
IL-6R = IL-6R (UniProt P08887)
Sequence of IL-6R (P08887 20-365): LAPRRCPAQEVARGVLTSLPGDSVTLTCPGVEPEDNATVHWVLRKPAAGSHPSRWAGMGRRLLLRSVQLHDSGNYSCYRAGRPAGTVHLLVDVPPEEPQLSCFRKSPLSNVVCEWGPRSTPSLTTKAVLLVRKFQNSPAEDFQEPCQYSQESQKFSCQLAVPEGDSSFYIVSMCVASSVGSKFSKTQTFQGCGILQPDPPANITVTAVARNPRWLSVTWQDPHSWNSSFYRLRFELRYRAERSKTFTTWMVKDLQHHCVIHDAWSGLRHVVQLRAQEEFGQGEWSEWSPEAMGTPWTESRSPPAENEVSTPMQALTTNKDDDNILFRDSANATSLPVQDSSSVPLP

Sequence of eCIRP (Q14011 whole entry): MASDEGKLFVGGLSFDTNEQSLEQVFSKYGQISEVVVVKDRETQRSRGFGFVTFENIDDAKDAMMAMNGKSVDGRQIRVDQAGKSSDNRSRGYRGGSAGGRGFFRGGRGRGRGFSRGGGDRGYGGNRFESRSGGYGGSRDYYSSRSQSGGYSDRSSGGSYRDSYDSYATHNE
Sequence of TLR4 (O00206 24-631): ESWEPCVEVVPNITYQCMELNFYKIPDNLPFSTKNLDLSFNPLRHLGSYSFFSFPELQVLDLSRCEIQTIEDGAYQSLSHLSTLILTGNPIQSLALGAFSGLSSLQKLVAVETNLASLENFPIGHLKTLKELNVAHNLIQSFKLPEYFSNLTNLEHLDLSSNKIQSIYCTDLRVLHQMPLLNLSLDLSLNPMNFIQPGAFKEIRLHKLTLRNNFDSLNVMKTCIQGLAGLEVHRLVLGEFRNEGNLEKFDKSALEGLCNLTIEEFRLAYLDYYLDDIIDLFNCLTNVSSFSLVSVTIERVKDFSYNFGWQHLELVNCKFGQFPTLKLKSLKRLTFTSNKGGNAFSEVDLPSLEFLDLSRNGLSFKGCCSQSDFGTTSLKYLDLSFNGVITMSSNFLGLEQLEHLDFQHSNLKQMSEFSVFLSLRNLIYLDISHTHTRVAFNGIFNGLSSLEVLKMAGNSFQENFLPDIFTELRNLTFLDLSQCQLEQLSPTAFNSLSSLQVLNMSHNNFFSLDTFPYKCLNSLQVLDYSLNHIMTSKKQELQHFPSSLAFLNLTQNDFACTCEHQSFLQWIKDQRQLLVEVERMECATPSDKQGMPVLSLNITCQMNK
Sequence of TREM-1 (Q9NP99 21-205): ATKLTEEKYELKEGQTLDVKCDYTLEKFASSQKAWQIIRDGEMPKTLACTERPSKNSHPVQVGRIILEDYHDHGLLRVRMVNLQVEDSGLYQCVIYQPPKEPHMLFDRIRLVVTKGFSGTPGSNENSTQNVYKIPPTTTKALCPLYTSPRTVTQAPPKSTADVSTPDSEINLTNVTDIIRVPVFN

What does the source list for eCIRP (from UniProt Q14011)?
Kd (TLR4): 617 nM; Kd (TREM-1): 117 nM; Kd (IL-6R): 98 nM
